According to the MegaScale stability set (Tsuboyama et al. 2023):

B1: EEHEE_rd4_0363 (parent)
chain: VTVDIKGMEYHFDNPEEAKKFAERMAKELGGELKVENGTLKVE

Variants of: B1
Experiment: folding stability dG (cDNA display proteolysis); higher = more stable
Details: PBS, room temperature

Folding stability dG [kcal/mol]: each site, then its substitutions
A18: C 1.03; G 1.46; L 0.471; M 0.379; K -0.683; V -0.372; I -0.262; S -0.064; W 0.824; Y 0.753; F 0.719; R -0.072; H -0.269; T -0.52; E -0.431; Q -0.376
A22: Q 0.746; W 1.53; I 1.5; V 1.26; N 0.039; L 1.48; C 1.54; Y 1.06; S 0.388; K 0.798; F 1.23; D -0.23; G 0.968; T 0.578; M 1.39; R 1.05; E 0.571; H 0.228
R24: G 1.29; D 1.68; S 1.72; L 1.99; E 1.99; T 1.75; C 2.83; H 1.94; Y 2.34; N 1.55; F 2.28; V 1.35; M 2.11; I 1.5; W 2.34; A 2.11; K 2.01; P -0.281; Q 2.04
N14: E 1.18; L 1.02; D 2.33; H 1.3; F 0.914; G 1.08; M 0.77; Y 0.952; W 0.812; R 1.15; V 0.902; K 1.08; C 1.81; I 0.929; A 0.941; Q 0.996; T 2.07; S 2.11
M8: S 1.55; F 2.11; W 1.78; E 1.63; T 2.26; V 2.52; Y 2.06; C 2.23; Q 2.05; P -0.136; L 1.93; N 1.58; G 0.564; A 1.54; R 2.41; I 2.46; K 2.44; D 1.24; H 1.99
Y10: M 0.781; F 1.99; D -0.462; A 0.161; Q 0.239; V 0.768; C 1.77; W 1.56; S -0.033; T 0.289; L 0.741; E -0.466; R 0.383; K 0.191; G -0.912; N -0.275; H 0.908; P -0.055; I 1.05
F21: I -0.454; Y 1.06; M -0.083; C 0.708; W 1.64; Q -0.803; A -0.089; H -0.264; E -0.293; V -0.636; L -0.142; N -0.807
K20: N 1.77; T 1.67; Q 2.01; V 1.73; C 2.28; A 2.42; D 1.7; G 1.18; M 1.88; S 1.95; I 2.08; L 2.06; E 2.08; F 1.62; H 1.53; Y 1.57; R 2.18; W 1.67; P -0.999
D13: T 1.93; V 1.64; K 1.82; E 1.9; G 1.51; H 1.58; A 1.95; F 1.41; L 1.68; I 1.68; W 1.58; S 2; P 1.6; C 2.42; Y 1.22; Q 1.73; M 1.68; R 1.74; N 1.88
M25: A 1.37; D 0.142; I 1.57; H 0.844; G 0.03; E 0.574; C 2.19; F 1.08
P15: Q 1.75; E 2.12; M 2.86; K 1.45; Y 3.25; F 3.22; A 2.19; N 1.41; R 1.45; G 1.39; T 1.52; S 1.64; W 3.73; V 2.17; C 2.33; L 2.6; H 2.05; I 2.58; D 1.58
G7: S 0.507; W 0.811; L 0.238; C 1.72; D 0.499; Q 0.441; P 0.309; T 0.445; H 0.716; N 0.745; M 0.304; F 0.855; E 0.306; K 0.294; R 0.237; I 0.499; V 0.407; Y 0.918
F12: C 1.66; Q -0.27; V -0.424; E -0.877; G -0.303; H -0.13; P -0.958; M 0.11; L 0.213; R -0.751; N -0.908; I -0.023; S -0.396; K -0.237; W 0.074; Y 0.382; T -0.58; A -0.113
E23: Q 1.65; P -0.639; R 1.16; W 1.4; G 0.124; K 1.34; C 2.35; F 1.27; Y 1.5; A 1.48; L 1.89; T 1.31; D 1.58; M 1.9; S 1.08; I 1.87; N 0.999; V 1.55; H 1.11
E16: R 1.27; Y 1.79; W 1.98; L 1.65; T 1.7; H 1.63; I 1.71; P -0.084; F 1.7; V 1.74; K 1.33; A 1.78; C 2.17; Q 1.67; G 1.24; S 1.58; N 1.41; M 1.71; D 2.02
K19: A 1.65; E 1.32; T 1.71; N 1.38; S 1.35; W 3.27; M 2.67; V 1.96; F 2.67; H 1.98; G 0.835; L 2.74; Y 2.87; Q 2.17; D 0.524; I 2.38; R 2.65
H11: D 0.422; R 1.87; E 0.894; K 1.73; C 2.21; Q 1.39; Y 2.36; A 1.16; S 1.33; F 2.13; W 2.26; L 1.55; M 1.54; G 0.524; P 0.291; N 1.32; V 1.84; I 1.77; T 1.77
E17: M 1.39; H 1.2; R 0.908; Q 1.5; L 1.31; Y 0.905; G 0.569; K 1.16; P -0.343; V 1.17; D 2.08; N 1.11; C 2.09; I 1.16; W 0.794; A 1.7; T 1.23; F 0.922; S 1.38
E9: F 2.66; P 1.47; L 3.44; W 2.25; S 2.32; R 2.9; H 2.51; C 3.28; K 3.05; Y 2.6; N 1.71; D 0.904; T 2.55; G 1.26; A 1.99; M 2.92; V 2.93; Q 2.69; I 3.25
